Test results: patent EP4328239A1 (dated 2024)
Changes are numbered by the printed parent chain. Values belong to the binder of their own block, whether it stands above or below them.

Assays:
[1] = target: T1, MAGEA1 peptide on HLA-B*07:02 (human); assay: cytokine release
T1 peptide: ARVRFFFPSL

[2] = target: T2, MAGEA1 peptide on HLA-B*07:02 (human); assay: cytokine release
T2 peptide: RVRFFFPSLR

[3] = target: T3, MAGEA1 peptide on HLA-B*44:03 (human); assay: luciferase kill assay, 18 h; TCR-transduced CD8+ T cells against K562-HLA-B4403-MAGE-A1, cells that express the antigen (full-length MAGEA1); two donors; full-length, on cells
T3 peptide: LAETSYVKVL

[4] = target: T4, MAGEA1 peptide on HLA-B*44:03 (human); assay: cytokine release
T4 peptide: ALAETSYVKV

[5] = target: T5, MAGEA1 peptide on HLA-B*44:03 (human); assay: cytokine release
T5 peptide: AETSYVKVL

[6] = target: T6, MAGEA1 peptide on HLA-B*44:03 (human); assay: cytokine release
T6 peptide: AETSYVKVLE

[7] = target: T7, MAGEA1 peptide on HLA-B*57:03 (human); assay: cytokine release
T7 peptide: KVADLVGFL

[8] = target: T8, MAGEA1 peptide on HLA-B*57:03 (human); assay: cytokine release
T8 peptide: VADLVGFLL

[9] = target: T9, MAGEA1 peptide on HLA-A*29:02 (human); assay: cytokine release
T9 peptide: DLVGFLLLKY

[10] = target: T10, MAGEA1 peptide on HLA-A*29:02 (human); assay: cytokine release
T10 peptide: LVGFLLLKY

[11] = target: T11, MAGEA1 peptide on HLA-A*03:01 (human); assay: cytokine release
T11 peptide: SLFRAVITKK

[12] = target: T12, MAGEA1 peptide on HLA-A*03:01 (human); assay: cytokine release
T12 peptide: ESLFRAVITK

[13] = target: T13, MAGEA1 peptide on HLA-A*03:01 (human); assay: cytokine release
T13 peptide: LFRAVITKK

[14] = target: T14, MAGEA1 peptide on HLA-A*26:01 (human); assay: cytokine release
T14 peptide: EVYDGREHSA

[15] = target: T15, MAGEA1 peptide on HLA-B*44:03 (human); assay: killing
T15 peptide: KVADLVGFLL

[16] = target: T16, MAGEA1 peptide on HLA-B*44:03 (human); assay: cytokine release
T16 peptide: ADLVGFLLLK

[17] = target: T17, MAGEA1 peptide on HLA-B*44:03 (human); assay: cytokine release
T17 peptide: VADLVGFLL

[18] = target: T18, MAGEA1 peptide on HLA-A*02:01 (human); assay: luciferase kill assay, 18 h; TCR-transduced CD8+ T cells against K562-HLA-A0201-MAGE-A1, cells that express the antigen (full-length MAGEA1); full-length, on cells
T18 peptide: KVLEYVIKV

[19] = target: T19, MAGEA1 peptide on HLA-A*02:01 (human); assay: cytokine release
T19 peptide: VKVLEYVIKV

[20] = target: T20, MAGEA1 peptide on HLA-A*02:01 (human); assay: cytokine release
T20 peptide: KVLEYVIKVS

[21] = target: T21, MAGEA1 peptide on HLA-B*07:02 (human); assay: luciferase kill assay, 18 h; TCR-transduced CD8+ T cells against K562-HLA-B0702-MAGE-A1, cells that express the antigen (full-length MAGEA1); full-length, on cells
T21 peptide: RVRFFFPSL

[22] = target: T22, MAGEA1 peptide on HLA-B*44:03 (human); assay: killing
T22 peptide: EEGPSTSCI

binding result [16]: recognises
binding result [17]: recognises
B8: TCR6 (TCR, V domains shown)
Valpha: QKEVEQNSGPLSVPEGAIASLNCTYSDRGSQSFFWYRQYSGKSPELIMFIYSNGDKEDGRFTAQLNKASQYVSLLIRDSQPSDSATYLCAVSSNTGKLIFGQGTTLQVKP
Vbeta: DAGVIQSPRHEVTEMGQEVTLRCKPISGHNSLFWYRQTMMRGLELLIYFNNNVPIDDSGMPEDRFSAKMPNASFSTLKIQPSEPRDSAVYFCASKWGQGAGDTQYFGPGTRLTVL
binding result [15]: recognises

binding result [1]: recognises
binding result [2]: recognises
B10: TCR18.2 (TCR, V domains shown)
Valpha: GQQVMQIPQYQHVQEGEDFTTYCNSSTTLSNIQWYKQRPGGHPVFLIQLVKSGEVKKQKRLTFQFGEAKKNSSLHITATQTTDVGTYFCANRDNYGQNFVFGPGTRLSVLP
Vbeta: EAQVTQNPRYLITVTGKKLTVTCSQNMNHEYMSWYRQDPGLGLRQIYYSMNVEVTDKGDVPEGYKVSRKEKRNFPLILESPSPNQTSLYFCASTRTGTLPEAFFGQGTRLTVV
EC50 killing capacity (E:T ratio at which 50% of target cells were killed) [21]: 20 E:T ratio

binding result [1]: recognises
binding result [2]: recognises
B11: TCR18.1 (TCR, V domains shown)
Valpha: B10 Valpha
Vbeta: EAQVTQNPRYLITVTGKKLTVTCSQNMNHEYMSWYRQDPGLGLRQIYYSMNVEVTDKGDVPEGYKVSRKEKRNFPLILESPSPNQTSLYFCASSRTSGISYEQYFGPGTRLTVT

binding result [11]: recognises
binding result [12]: recognises
binding result [13]: recognises
B12: TCR24 (TCR, V domains shown)
Valpha: KNQVEQSPQSLIILEGKNCTLQCNYTVSPFSNLRWYKQDTGRGPVSLTIMTFSENTKSNGRYTATLDADTKQSSLHITASQLSDSASYICVVSNNAGNMLTFGGGTRLMVKP
Vbeta: DAMVIQNPRYQVTQFGKPVTLSCSQTLNHNVMYWYQQKSSQAPKLLFHYYDKDFNNEADTPDNFQSRRPNTSFCFLDIRSPGLGDTAMYLCATSRESLGRDEQFFGPGTRLTVL

Second part, the binder before the results:

B1: TCR19 (TCR, V domains shown)
Valpha: AQTVTQSQPEMSVQEAETVTLSCTYDTSENNYYLFWYKQPPSRQMILVIRQEAYKQQNATENRFSVNFQKAAKSFSLKISDSQLGDTAMYFCAFISGYSTLTFGKGTMLLVSP
Vbeta: B11 Vbeta with S94R, R95T, T96S, S97H, G98P, I99Q, S100T
binding result [1]: recognises
binding result [2]: recognises

B2: TCR23 (TCR, V domains shown)
Valpha: AQKVTQAQTEISVVEKEDVTLDCVYETRDTTYYLFWYKQPPSGELVFLIRRNSFDEQNEISGRYSWNFQKSTSSFNFTITASQVVDSAVYFCALSVTYTGNQFYFGTGTSLTVIP
Vbeta: DSGVTQTPKHLITATGQRVTLRCSPRSGDLSVYWYQQSLDQGLQFLIQYYNGEERAKGNILERFSAQQFPDLHSELNLSSLELGDSALYFCASSVQGQGTDTQYFGPGTRLTVL
binding result [1]: recognises
binding result [2]: recognises

B3: TCR5 (TCR, V domains shown)
Valpha: GQQLNQSPQSMFIQEGEDVSMNCTSSSIFNTWLWYKQEPGEGPVLLIALYKAGELTSNGRLTAQFGITRKDSFLNISASIPSDVGIYFCAGLRDNYGQNFVFGPGTRLSVLP
Vbeta: DGGITQSPKYLFRKEGQNVTLSCEQNLNHDAMYWYRQDPGQGLRLIYYSQIVNDFQKGDIAEGYSVSREKKESFPLTVTSAQKNPTAFYLCASRVGGFEGYTFGSGTRLTVV
EC50 killing capacity (E:T ratio at which 50% of target cells were killed) [3]: 0.4 E:T ratio
binding result [4]: recognises
binding result [5]: recognises
binding result [6]: recognises

B4: TCR1 (TCR, V domains shown)
Valpha: GNSVTQMEGPVTLSEEAFLTINCTYTATGYPSLFWYVQYPGEGLQLLLKATKADDKGSNKGFEATYRKETTSFHLEKGSVQVSDSAVYFCALSGGGSYIPTFGRGTSLIVHP
Vbeta: EAGVAQSPRYKIIEKRQSVAFWCNPISGHATLYWYQQILGQGPKLLIQFQNNGVVDDSQLPKDRFSAERLKGVDSTLKIQPAKLEDSAVYLCASSSPGQLNTEAFFGQGTRLTVV
binding result [7]: recognises
binding result [8]: recognises

B5: TCR4 (TCR, V domains shown)
Valpha: AQSVTQLGSHVSVSEGALVLLRCNYSSSVPPYLFWYVQYPNQGLQLLLKYTSAATLVKGINGFEAEFKKSETSFHLTKPSAHMSDAAEYFCAVSNSGNTPLVFGKGTRLSVIA
Vbeta: AAGVIQSPRHLIKEKRETATLKCYPIPRHDTVYWYQQGPGQDPQFLISFYEKMQSDKGSIPDRFSAQQFSDYHSELNMSSLELGDSALYFCASSSTTGDGYTFGSGTRLTVV
binding result [9]: recognises
binding result [10]: recognises

B6: TCR22 (TCR, V domains shown)
Valpha: SQQGEEDPQALSIQEGENATMNCSYKTSINNLQWYRQNSGRGLVHLILIRSNEREKHSGRLRVTLDTSKKSSSLLITASRAADTASYFCATDEGGAQKLVFGQGTRLTINP
Vbeta: DVKVTQSSRYLVKRTGEKVFLECVQDMDHENMFWYRQDPGLGLRLIYFSYDVKMKEKGDIPEGYSVSREKKERFSLILESASTNQTSMYLCATVGRGEDRGEQFFGPGTRLTVL
binding result [11]: recognises
binding result [12]: recognises
binding result [13]: recognises

B7: TCR2 (TCR, V domains shown)
Valpha: AQKITQTQPGMFVQEKEAVTLDCTYDTSDPSYGLFWYKQPSSGEMIFLIYQGSYDQQNATEGRYSLNFQKARKSANLVISASQLGDSAMYFCASREGSARQLTFGSGTQLTVLP
Vbeta: DVKVTQSSRYLVKRTGEKVFLECVQDMDHENMFWYRQDPGLGLRLIYFSYDVKMKEKGDIPEGYSVSREKKERFSLILESASTNQTSMYLCASDSADTQYFGPGTRLTVL
binding result [14]: recognises

B9: TCR20 (TCR, V domains shown)
Valpha: QKEVEQNSGPLSVPEGAIASLNCTYSDRGSQSFFWYRQYSGKSPELIMFIYSNGDKEDGRFTAQLNKASQYVSLLIRDSQPSDSATYLCAVNAPRPGYSTLTFGKGTMLLVSP
Vbeta: DVKVTQSSRYLVKRTGEKVFLECVQDMDHENMFWYRQDPGLGLRLIYFSYDVKMKEKGDIPEGYSVSREKKERFSLILESASTNQTSMYLCASSLSMNTEAFFGQGTRLTVV
EC50 killing capacity (E:T ratio at which 50% of target cells were killed) [18]: 0.8 E:T ratio
binding result [19]: recognises
binding result [20]: recognises

B13: TCR8 (TCR, V domains shown)
Valpha: GQNIDQPTEMTATEGAIVQINCTYQTSGFNGLFWYQQHAGEAPTFLSYNVLDGLEEKGRFSSFLSRSKGYSYLLLKELQMKDSASYLCAPSSNTGKLIFGQGTTLQVKP
Vbeta: DAGVIQSPRHEVTEMGQEVTLRCKPISGHNSLFWYRQTMMRGLELLIYFNNNVPIDDSGMPEDRFSAKMPNASFSTLKIQPSEPRDSAVYFCASSLPQETQYFGPGTRLLVL
binding result [22]: recognises
